Numbering of substitutions follows the chain as printed.
B1: 75110_02I18A (antibody, V domains shown)
VH: EVQVVESGGGLVQPGGSLRLSCAASGFTFSSYDMHWVRQATGKGLEWVSTIGTAGDTYYPGSVKGRFTISRENAKNSLYLQMNSLRAGDTAVYYCARGGYYYYGMDVWGQGTTVTVSS
VL: EIVLTQSPGTLSLSPGERATLSCRASQSVSSSYLAWYQQKPGQSPRLLIHGASSRATGIPDRVSGSGSGTDFTLTISRLEPEDFAVYYCQQYGSSPFTFGPGTKVDIK
notes: Tested as non-clonal hybridoma supernatant (AlivaMab Mouse Kappa), detected with anti-mouse Fc and anti-human kappa
B2: 75110_05F19A (antibody, V domains shown)
VH: B1 VH with V4L, S31N, M34V, A40P, Y101D, M105L
VL: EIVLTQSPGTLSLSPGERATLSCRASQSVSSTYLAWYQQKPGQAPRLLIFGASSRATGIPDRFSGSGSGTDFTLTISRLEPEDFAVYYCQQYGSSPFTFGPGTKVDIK
notes: as for B1
B3: 75110_01L08A (antibody, V domains shown)
VH: QVQLQESGPGLVKPSETLSLTCTVSGGSISHYYWSWIRQPPGKGLEWIGYIHYSGTTNYNPSLKSRVTISVDTSKNQLSLKLRSVTAADTAVYYCARDQGFSSGGMDVWGQGTTVTVSS
VL: not shown
notes: as for B1
B4: 75110_08K12A (antibody, V domains shown)
VH: B1 VH with V4L, K75E, V92L, G99D
VL: B1 VL with S32T, S44A, H50Y, S54N, V63F, Y92F, S94T
notes: Tested as non-clonal AlivaMab Mouse Kappa hybridoma supernatant (detected with anti-mouse Fc gamma and anti-human kappa)
B5: 75110_14N19A (antibody, V domains shown)
VH: QVQLQESGPGLVKPSETLSLTCTVSGGSISRYYWSWIRQPAGKGLEWIGRICTSENPNYNPALKSRVTMSVDTSKNQFSLKLSSVTAADTAVYYCARELERLNYYGMDVWGQGTTVTVSS
VL: DIQMTQFPSSLSASVGDRVTITCQASQDISNYLNWYQQKPGKAPKLLIYDASNLESGVPSRFSGRGSGTDFTFTISSLQPEDFATFYCQQYDTLPITFGQGTRLEIK
notes: as for B4
B6: 75110_14P08A (antibody, V domains shown)
VH: QVQLQESGPGLVKSSETLSLTCTDSGDSIRSYYWNWIRQPAGKGLEWIGRIYASGSTNYNPSLKSRVIMSADTSKNRFSLKLSSVTAADTAVYYCARDGGVGDSLDYWGQGTLVTVSS
VL: DIVMTQTPLSLPVTPGEPASISCRSSQSLLDSDDGNTYLDWYLQKPGQSPQLLIYTLSYRASGVPDRFSGSGSGTDFTLKISRVEAEDVGVYYCMQRIEFPFTFGPGTKVDIK
notes: as for B4
B7: 75110_14G10A (antibody, V domains shown)
VH: EVQLVESGGGLVKPGGSLRLSCAASGFTFSSYSMNWVRQAPGKGLEWVSFISSSSSYIYYADSVKGRFTISRDNAKNSLYLQMNSLRAEDTAVYYCARERGDDYGDYEGAFDIWGQGTMVTVSS
VL: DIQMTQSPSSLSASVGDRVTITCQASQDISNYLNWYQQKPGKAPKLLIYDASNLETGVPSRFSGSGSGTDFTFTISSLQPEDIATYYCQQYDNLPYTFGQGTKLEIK
notes: as for B4
B8: 75110_02N15A (antibody, V domains shown)
VH: EVQLVESGGGLVQPGGSLRLSCAASGFTFSSYWMSWVRQAPGKGLEWVANINEDGNEKYYVDSVKGRFTISRDNAKNSLFLQMNSLRAEDTAVYFCAREGGQWLALDHWGQGALVTVSS
VL: DIQMTQSPSSVSASVGDRVTITCRASQGISSWLAWYQQKPGKAPKFLISGASSLQSGVPSRFSGSGSGTDFTLTISSLQPEDFATYYCQQANSFPWTFGQGTKVEFK
notes: as for B4

biological target: T1, human CD4 on cells (SKW3 cells; human PBMCs) (human, UniProt P01730 26-458); assay: FACS confirmation, supernatant on human PBMCs, anti-mFc 647, percent of viable cells
T1 construct: whole, on cells; SKW3 CD4 knockout cells served as the negative cell line for the WT vs KO ratios; also called hCD4; SKW3 WT

Binder	CD4+ Percent Bound of Viable [%]
B1	29
B2	31
B3	27

biological target: T2, human CD4 on cells (SKW3 cells; human PBMCs) (human, UniProt P01730 26-458); assay: FACS binning on SKW3 cells; competitor OKT4-A488; background 2163, max binding 8200
T2 construct: whole, on cells; SKW3 CD4 knockout cells served as the negative cell line in the primary screen; also called hCD4; huCD4

Binder	OKT4-A488 signal with supernatant
B4	8660
B5	9080
B6	9100
B7	8720
B8	3020

biological target: T1, human CD4 on cells (SKW3 cells; human …); assay: SKW3 FACS binning; competitor RPA-T4-PE-Dazzle 594 added after supernatant (background 783, max binding 15000)

Binder	RPA-T4-PE-Dazzle 594 signal in binning
B1	4410
B2	15900
B3	19800

biological target: T2, human CD4 on cells (SKW3 cells; human …); assay: FACS confirmation, supernatant on SKW3 cells; background gMFI 3300

Binder	gMFI on SKW3 WT, anti-mFc 647 [gMFI]
B4	16600
B5	28600
B6	20300
B7	8910
B8	15900

biological target: T3, huCD4-HIS (human, UniProt P01730 26-390, limits assumed); assay: ELISA binning; competitor Ibalizumab, 100 ng/mL huCD4-HIS, anti-HIS HRP detection (background 45, max binding 3000000)
T3 construct: Named only in the head of the ELISA binning column; not shown: HIS tag

Binder	Ibalizumab ELISA binning signal
B1	291000
B2	45
B3	58200

biological target: T2, human CD4 on cells (SKW3 cells; human …); assay: FACS binning on SKW3 cells; competitor RPA-T4-PE-Dazzle 594; background 783, max binding 15000

Binder	RPA-T4-PE-Dazzle 594 signal with supernatant
B4	16000
B5	16600
B6	16400
B7	10100
B8	14200

biological target: T4, huCD4-HIS (human, UniProt P01730 26-390, limits assumed); assay: ELISA binning; competitor ibalizumab; 100 ng/mL huCD4-HIS, anti-HIS HRP; background 45, max binding 3000000
T4 construct: the ELISA is not described in the text of this stretch; also called human CD4-HIS

Binder	Ibalizumab ELISA binning signal
B4	1.98e+06
B5	1.28e+06
B6	2.2e+06
B7	1.21e+06
B8	1.98e+06

biological target: T1, human CD4 on cells (SKW3 cells; human …); assay: FACS confirmation, supernatant on SKW3 WT cells, anti-mFc 647 (Bkrd gMFI = 3300)

Binder	gMFI [gMFI]
B1	16500
B2	42200
B3	18700

biological target: T2, human CD4 on cells (SKW3 cells; human …); assay: FACS confirmation, supernatant on human PBMCs;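 also: flow cytometry with hybridoma supernatants incubated on human PBMCs for 30 min at 4 °C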

Binder	PBMCs CD4+ gate RL1 binding, anti-mFc 647	PBMCs CD4+ percent bound of viable [%]
B4	276000	29
B5	277000	29
B6	292000	30
B7	142000	32
B8	250000	27

biological target: T1, human CD4 on cells (SKW3 cells; human …); assay: FACS primary screen, non-clonal hybridoma supernatant; SKW3 WT vs SKW3 CD4 KO cells, anti-hKappa-FITC

Binder	SKW3 WT vs KO anti-hKappa-FITC [fold]
B1	2.2
B2	2.8
B3	2.6

biological target: T2, human CD4 on cells (SKW3 cells; human …); assay: FACS primary screen, hybridoma supernatant, SKW3 vs SKW3 CD4 KO cells;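 also: flow cytometry on mixed SKW3 and dye-labeled SKW3 CD4 knockout cells after 30 min at 4 °C with supernatant, ratio of binding signal on parental versus knockout cells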

Binder	SKW3 WT vs KO ratio, anti-hKappa-FITC	SKW3 WT vs KO ratio, anti-mFc-647
B4	1.7	4.7
B5	3.8	14.9
B6	2.2	6.7
B7	1.1	2.2
B8	2.1	4.9

biological target: T1, human CD4 on cells (SKW3 cells; human …); assay: FACS confirmation, supernatant on human PBMCs, anti-mFc 647, CD4+ gate

Binder	CD4+ gate RL1 Binding
B1	275000
B2	281000
B3	200000

biological target: T1, human CD4 on cells (SKW3 cells; human …); assay: SKW3 FACS binning; competitor OKT4-A488 added after supernatant (background 2163, max binding 8200)

Binder	OKT4 A488 signal in binning
B1	9230
B2	8920
B3	9750

biological target: T1, human CD4 on cells (SKW3 cells; human …); assay: FACS confirmation, supernatant on SKW3 WT cells, anti-hu Kappa FITC (Bkrd gMFI = 2500)

Binder	gMFI [gMFI]
B1	5370
B2	8510
B3	5520

biological target: T2, human CD4 on cells (SKW3 cells; human …); assay: FACS confirmation, supernatant on SKW3 cells; background gMFI 2500

Binder	gMFI on SKW3 WT, anti-hu Kappa FITC [gMFI]
B4	5300
B5	7640
B6	5580
B7	3410
B8	5000

biological target: T1, human CD4 on cells (SKW3 cells; human …); assay: FACS primary screen, non-clonal hybridoma supernatant; SKW3 WT vs SKW3 CD4 KO cells, anti-mFc-647

Binder	SKW3 WT vs KO anti-mFc-647 [fold]
B1	4.2
B2	10.6
B3	4.3

biological target: T2, human CD4 on cells (SKW3 cells; human …); assay: FACS binning on SKW3 cells; competitor OKT4a; background 5000, max binding 35000

Binder	OKT4a signal (anti-hu A647) with supernatant
B4	39200
B5	29700
B6	38400
B7	41800
B8	42900

biological target: T1, human CD4 on cells (SKW3 cells; human …); assay: SKW3 FACS binning; competitor OKT4a added after supernatant, anti-hu A647 secondary (background 5000, max binding 35000)

Binder	OKT4a anti-hu A647 signal in binning
B1	44800
B2	30000
B3	9030

Source: patent publication US20220112288A1 (published 2022)
